# Changes are numbered by the printed parent chain.
# B1: IIA1 (antibody, V domains shown)
# VH: QVQLKESGPGLVAPSQSLSITCTISGFSLTDYGVHWVRQPPGKGLEWLVVIWSDGSSTYNSALKSRMTIRKDNSKSQVFLIMNSLQTDDSAMYYCARHGTYYGMTTTGDALDYWGQGTSVTVSS
# VL: QIVLTQSPAIMSASLGERVTMTCTASSSVSSNYLHWYQQKPGSAPNLWIYSTSNLASGVPARFSGSGSGTSYSLTISSMEAEDAATYYCHQYLRSPPTFGGGTKLEIK
# B2: 1F2.2B7 (antibody, IgG4, V domains shown)
# VH: QVQLVESGGGVVQPGRSLRLSCAASGFTFRSYGMHWVRQAPGKGLEWVAVIWYDGSNKYYADSVKGRFTISRDNSKNTLYLQMNSLRAEDTAMYYCARDGAARRGDYYYYHGMDVWGQGTTVTVSS
# VL: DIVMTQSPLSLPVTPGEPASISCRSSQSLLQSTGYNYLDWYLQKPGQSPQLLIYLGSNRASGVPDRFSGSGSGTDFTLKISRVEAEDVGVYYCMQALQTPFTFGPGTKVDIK
# notes: also called mAb 1F2.2B7
# B3: 2H12 IgG2 WT (antibody, V domains shown)
# VH: B2 VH with R30S, S56T, M93V, H111Y
# VL: DIVMTQSPLSLPVTPGEPASISCRSSQSLLRGHGYSYLDWYLQKPGQSPQLLIYLGSNRASGVPDRFSGSGSGTDFTLKISRVEAEDVGVYYCMQALQTPFTFGPGTKVDIK
# B4: 3F12.4A1 (antibody, IgG2, V domains shown)
# VH: B2 VH with R30S, S56T, R87T, M93V, G100M, H111Y, Q118P
# VL: B3 VL with R31N, H33I, S36N, Y37F, K79T, Q95H
# notes: Isotype IgG2/k
# B5: 2H12 (antibody, IgG4, V domains shown)
# VH: B2 VH with R30S, S56T, N77T, M93V, H111Y
# VL: B3 VL
# notes: Identified as an IgG4/k antibody; also called MAb 2H12; 2H12 IgG4
# B6: 2G2.2B5 (antibody, IgG4, V domains shown)
# VH: B2 VH with R30S, M93V, H111Y
# VL: B3 VL with D1E, S26G, R31Q, G32S, H33T, Y35S, S36N, D39A
# notes: Isotype IgG4/k
# B7: 4G3.3D11 (antibody, IgG4, V domains shown)
# VH: B2 VH with T28I, R30S, S56T, M93V, H111Y
# VL: B3 VL with R31H, H33T, Y37S, Y92F
# notes: Isotype IgG4/k
# B8: 2H12 Variant 1 (IgG2) (antibody, V domains shown)
# VH: B2 VH with R30S, S56T, M93V, H111Y
# VL: B3 VL
# B9: 7B1.3A1 (antibody, IgG4, V domains shown)
# VH: B2 VH with I51L, Y59N
# VL: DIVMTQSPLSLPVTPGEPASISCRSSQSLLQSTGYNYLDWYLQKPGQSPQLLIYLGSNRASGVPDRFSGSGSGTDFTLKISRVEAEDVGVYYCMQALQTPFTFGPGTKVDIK
# notes: also called MAb 7B1.3A1
# Key:
# [1] = target: T1, human α5β1 integrin (human, UniProt P08648 42-1049; P05556 21-798); assay: cell-based or functional assay
# [2] = target: T2, β1 chain (integrin β1) (human, UniProt P05556 21-798); assay: FACS on HT29 cells (α5 null, β1 present); cells alone 2.07, human secondary 2.8
# T2 construct: whole, on cells; also called b1; beta1
# Description: (§1) To confirm the antibodies bind to the α5 chain or to the α5β1 heterodimer, binding to Human colon adenocarcinoma grade II cells (HT29 cells) was assessed by FACS. […] HT-29 cells were suspended in HBSS with 1% BSA and 1 mM final MnCL₂ at a concentration of 6×10⁵ cells/ml. 12.5 uL of the primary antibody was added to 37.5 ul of cells and the plate incubated on ice for 60 minutes. A range of negative controls were included as described previously (indicated as below). In addition as a positive control antibodies to αvβ6 (Mab2077, Chemicon), α5β1 (Mab1909, Chemicon) and αv (L230, Chemicon) were included. 100 uL of HBSS buffer was added to dilute primary antibody, the cells pelleted by centrifuging at 1500 rpm for 3 minutes and resuspended in 50 ul Goat anti-human IgG Fc Cy5 or Goat anti Mouse IgG Fc Cy5 secondary at 2 ug/mL. They were then incubated on ice for a further 7 minutes, and 100 uL of HBSS buffer was added to dilute secondary antibody. Finally cells were pelleted by centrifuging at 1500 rpm for 3 minutes, HBSS Buffer/secondary supernatant removed, washed twice in 100 ul of FACS buffer was added and the cells were resuspended and then read on a FACS Calibur HTS. Samples were analyzed using Cell Quest Pro software. The data is represented in Table 6 and confirm that the antibodies are selective for α5β1.
# [3] = target: T1, human α5β1 integrin; assay: cell-based or functional assay; remark: listed apart in the source
# [4] = target: T3, α4β1 integrin (UniProt P13612 34-1032; P05556 21-798); assay: cell-based or functional assay
# [5] = target: T4, Macaque α5β1 (Macaque); assay: FACS on macaque T-cells; Goat anti Human IgG Fc Cy5 alone 3
# T4 construct: whole, on cells; On macaque T-cells (from frozen PBMCs); also called monkey α5β1; monkey integrin
# Description: To determine whether the antibodies cross reacted to monkey integrin, binding to purified Macaque T-cells was assessed. Macaque PBMCs were previously purified from whole blood, and stored frozen. Macaque PBMCs were suspended in adhesion buffer with HBSS 1% BSA and 1 mM Mn2+ (“FACS buffer”), at a concentration of 4.8×10⁵ live cells per ml. 12.5 uL of the primary antibody was added to 37.5 ul of cells, and incubated at 4° C. for 1 hour. Positive and negative controls were included as indicated. 100 uL of FACs buffer is added to dilute out primary antibody, the cells washed and resuspended in the appropriate secondary at 2 ug/mL (50 uL) with 10 ug/mL 7AAD, and stained on ice for 7 minutes. 100 uL of FACs buffer was added and cells were washed twice in FACS buffer, finally the supernatant removed and the cells were resuspended in 100 uL of buffer.
# Samples were read on HTS FACS machine and analyzed using Cell Quest Pro software. The data shown in Table 7 confirm that the antibodies cross react with monkey α5β1.
# [6] = target: T2, β1 chain (integrin β1); assay: FACS on HT29 cells (no α5 chain, β1 chain present)
# Description: as §1
# [7] = target: T1, human α5β1 integrin; assay: cell-based or functional assay; remark: listed apart in the source
# [8] = target: T3, α4β1 integrin; assay: cell-based or functional assay; remark: listed apart in the source
# [9] = target: T1, human α5β1 integrin; assay: FACS titration on K562 cells expressing α5β1, 1 mM MgCl2 and 1 mM CaCl2, 4 °C, nonlinear 4-parameter fit; 95% CI ±61.4 pM
# Description: To assess the affinity of the antibodies for α5β1, a FACS based KD analysis was employed. […] K562 cells expressing α5β1 were resuspended in filtered HBS buffer containing 1 mM MgCl₂ and 1 mM CaCl₂ at a concentration of approximately 2.5-6 million cells/mL. The cells were kept on ice. Serially diluted (2×) mAbs across 11 wells in a 96-well plate. All mAbs were diluted in HBS described above. Additional HBS and cells were added to each well so that the final volume was 300 μL/well and each well contained approximately 140,000-150,000 cells. The final molecular concentration range for each mAb was 2H12: 7.5 nM-[…]. Cells were incubated on a plate shaker for 5 hours at 4° C. and then were spun/washed 3× at 4° C. with HBS. […] The Mean Fluorescence (F) of 7000 “events” was determined using FACS Canto II HTS flow cytometry instrumentation. To calculate affinity, data was fitted nonlinearly to a plot of the Mean Fluorescence as a function of molecular mAb concentration with Scientist 3.0 software using the equation:
# In this equation, F=mean fluorescence, LT=total molecular mAb concentration, P′=proportionality constant that relates arbitrary fluorescence units to bound mAb, M=cellular concentration in molarity, n=number of receptors per cell, B=background signal, and KD=equilibrium dissociation constant. […]
# T2 sequence (P05556 21-798): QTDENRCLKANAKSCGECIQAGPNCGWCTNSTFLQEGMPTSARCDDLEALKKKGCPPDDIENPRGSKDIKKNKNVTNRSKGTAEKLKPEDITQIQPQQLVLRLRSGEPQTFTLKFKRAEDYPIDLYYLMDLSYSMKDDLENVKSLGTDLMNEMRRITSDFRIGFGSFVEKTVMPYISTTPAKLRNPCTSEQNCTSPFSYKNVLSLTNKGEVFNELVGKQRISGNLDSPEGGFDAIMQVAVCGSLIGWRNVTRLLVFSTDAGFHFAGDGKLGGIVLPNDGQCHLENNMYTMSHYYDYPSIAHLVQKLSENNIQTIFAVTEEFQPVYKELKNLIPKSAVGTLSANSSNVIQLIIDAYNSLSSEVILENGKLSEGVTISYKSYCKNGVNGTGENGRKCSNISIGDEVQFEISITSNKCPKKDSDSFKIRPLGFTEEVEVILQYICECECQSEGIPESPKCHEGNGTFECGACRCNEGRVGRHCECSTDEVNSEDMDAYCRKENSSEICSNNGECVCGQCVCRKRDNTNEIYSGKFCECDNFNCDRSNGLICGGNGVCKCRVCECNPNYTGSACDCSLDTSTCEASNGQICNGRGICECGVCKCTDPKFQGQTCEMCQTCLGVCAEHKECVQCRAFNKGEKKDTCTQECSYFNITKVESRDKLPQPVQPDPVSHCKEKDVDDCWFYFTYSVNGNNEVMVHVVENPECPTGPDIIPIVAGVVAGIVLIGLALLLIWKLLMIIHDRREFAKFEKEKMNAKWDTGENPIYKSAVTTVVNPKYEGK
# T1 sequence (P08648 42-1049, chain 1 of 2): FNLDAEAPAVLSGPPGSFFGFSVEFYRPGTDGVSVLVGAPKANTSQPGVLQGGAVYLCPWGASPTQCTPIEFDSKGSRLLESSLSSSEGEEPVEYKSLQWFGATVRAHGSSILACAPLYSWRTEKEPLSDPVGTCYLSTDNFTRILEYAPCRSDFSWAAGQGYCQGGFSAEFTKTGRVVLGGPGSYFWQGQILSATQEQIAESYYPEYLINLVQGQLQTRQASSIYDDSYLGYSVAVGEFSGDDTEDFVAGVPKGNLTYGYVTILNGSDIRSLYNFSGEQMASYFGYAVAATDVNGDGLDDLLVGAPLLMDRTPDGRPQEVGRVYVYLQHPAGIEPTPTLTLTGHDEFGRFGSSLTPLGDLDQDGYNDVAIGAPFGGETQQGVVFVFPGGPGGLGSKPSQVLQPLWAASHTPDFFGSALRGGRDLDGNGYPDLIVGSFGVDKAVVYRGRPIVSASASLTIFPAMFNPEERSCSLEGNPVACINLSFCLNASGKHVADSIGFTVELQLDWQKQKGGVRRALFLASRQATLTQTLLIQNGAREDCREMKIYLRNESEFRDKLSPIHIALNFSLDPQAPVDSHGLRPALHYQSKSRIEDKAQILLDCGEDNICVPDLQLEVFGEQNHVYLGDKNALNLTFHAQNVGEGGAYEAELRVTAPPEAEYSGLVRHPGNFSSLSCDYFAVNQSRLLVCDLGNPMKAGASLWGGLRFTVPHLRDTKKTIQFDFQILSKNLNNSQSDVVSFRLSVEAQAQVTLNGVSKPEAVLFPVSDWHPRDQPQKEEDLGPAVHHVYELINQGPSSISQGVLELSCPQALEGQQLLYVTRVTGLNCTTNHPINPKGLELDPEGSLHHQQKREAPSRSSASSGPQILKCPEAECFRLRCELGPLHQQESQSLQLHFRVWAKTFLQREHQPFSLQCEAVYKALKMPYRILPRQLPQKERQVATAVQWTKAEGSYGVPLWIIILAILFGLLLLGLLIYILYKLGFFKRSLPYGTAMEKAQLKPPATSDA
# T1 sequence (P05556 21-798, chain 2 of 2): as the sequence (P05556 21-798) above
# T3 sequence (P13612 34-1032, chain 1 of 2): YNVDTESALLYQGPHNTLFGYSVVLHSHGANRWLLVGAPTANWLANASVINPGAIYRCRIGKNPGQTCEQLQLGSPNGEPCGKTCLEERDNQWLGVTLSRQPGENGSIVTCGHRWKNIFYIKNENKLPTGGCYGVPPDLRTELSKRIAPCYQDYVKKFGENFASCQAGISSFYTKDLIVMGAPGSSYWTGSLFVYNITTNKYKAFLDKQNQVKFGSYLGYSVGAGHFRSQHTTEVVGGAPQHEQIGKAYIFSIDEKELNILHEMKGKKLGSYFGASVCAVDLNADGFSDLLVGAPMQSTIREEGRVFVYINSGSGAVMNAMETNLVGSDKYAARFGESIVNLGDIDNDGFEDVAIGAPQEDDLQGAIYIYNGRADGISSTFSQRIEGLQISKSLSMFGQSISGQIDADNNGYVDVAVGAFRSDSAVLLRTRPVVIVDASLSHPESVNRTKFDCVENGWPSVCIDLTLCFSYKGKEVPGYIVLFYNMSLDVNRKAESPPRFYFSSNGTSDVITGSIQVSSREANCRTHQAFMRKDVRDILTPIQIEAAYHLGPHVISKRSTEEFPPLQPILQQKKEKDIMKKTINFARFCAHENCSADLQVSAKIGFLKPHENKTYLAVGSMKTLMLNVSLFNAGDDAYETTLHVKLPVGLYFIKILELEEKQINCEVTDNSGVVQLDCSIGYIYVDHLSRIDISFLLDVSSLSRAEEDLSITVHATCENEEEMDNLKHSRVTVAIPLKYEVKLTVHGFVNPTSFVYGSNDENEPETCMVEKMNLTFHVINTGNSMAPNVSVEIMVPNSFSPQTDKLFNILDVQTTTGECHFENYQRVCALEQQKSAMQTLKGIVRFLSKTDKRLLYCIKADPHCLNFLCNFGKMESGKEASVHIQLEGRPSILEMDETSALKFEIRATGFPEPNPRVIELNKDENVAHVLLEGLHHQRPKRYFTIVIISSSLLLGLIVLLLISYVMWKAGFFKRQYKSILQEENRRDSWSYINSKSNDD
# T3 sequence (P05556 21-798, chain 2 of 2): as the sequence (P05556 21-798) above
Binder,IC50 ng/mL (adhesion of K562 cells to GST-Fibronectin type III domains 9-10) [1],Binding Geomean [2],"% Inhibition of cell adhesion, n = 1 (K562 on full length FN, supernatant 1 in 4) [3]","% Inhibition of cell adhesion, n = 2 (K562 on full length FN, supernatant 1 in 4) [3]","% Inhibition of cell adhesion, n = 3 (K562 on GST-FNIII(9-10), no pre-incubation, supernatant 1 in 4) [3]","% Inhibition of cell adhesion, n = 4 (K562 on GST-FNIII(9-10), supernatant 1 in 10) [3]","% Inhibition of cell adhesion, n = 5 (K562 on GST-FNIII(9-10), supernatant 1 in 10) [3]","% Inhibition of adhesion, CS1 n = 1 (J6.77 Jurkat cells on GST-CS-1) [4]","% Inhibition of adhesion, CS1 n = 2 (J6.77 Jurkat cells on GST-CS-1) [4]",Geo Mean on Macaque T-cells IgG detection [5],binding result [6],"IC50 (read off the curve), adhesion of K562 cells to GST-fibronectin repeats 8-10 [7]",Average % inhibition at 5 ug/ml (J6 cell adhesion to GST-CS-1) [8],Kd [9]
B1,16.7 ng/mL,,,,,,,,,,,,,
B2,,2.75,93%,102%,100%,98%,77%,29%,22%,9,no binding,,,
B3,,,,,,,,,,,,~0.2 µg/mL,,
B4,,3.61,103%,100%,97%,93%,91%,,,13,no binding,,-2%,
B5,43.2 ng/mL,2.96,89%,100%,96%,92%,89%,,,,,~0.2 µg/mL,,0.162 nM
B6,,3.03,100%,102%,97%,82%,78%,28%,-5%,11,no binding,,-11%,
B7,60.2 ng/mL,3.06,96%,99%,102%,100%,81%,,,,no binding,,,
B8,,,,,,,,,,,,~0.2 µg/mL,,
B9,49.8 ng/mL,3.17,98%,100%,91%,93%,84%,33%,12%,10,no binding,,-7%,
